Experimental data as given in US20250011420A1 (MEDICOVESTOR, published 2025).

Target: T1, recombinant 6His-Sp17 protein (UniProt Q15506 1-151)
T1 sequence: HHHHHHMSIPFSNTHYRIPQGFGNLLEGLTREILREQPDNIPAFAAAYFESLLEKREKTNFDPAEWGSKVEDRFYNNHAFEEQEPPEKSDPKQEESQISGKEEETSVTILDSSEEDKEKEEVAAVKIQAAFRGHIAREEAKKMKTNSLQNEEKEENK
Experiment: SPR (Biacore T200), 6His-Sp17 at 6.25-300 nM
Excerpt: The lines correspond, from highest to lowest, to fitted cycles for 300 nanomolar, 100 nanomolar, 50 nanomolar, 25 nanomolar, 12.5 nanomolar, and 6.25 nanomolar concentrations of 6His-Sp17.
The nucleotide sequences encoding the VH and VL regions of Example 1 were cloned into a mouse IgG2a heavy chain gene and a mouse kappa light chain gene, respectively, and expressed in CHO—S cells to produce a mouse-human chimeric antibody, which was named chAB2. Successful generation of the antibody was confirmed by SDS-PAGE and western blotting using anti-mouse heavy and light chain antibodies and recombinant Sp17 protein (FIGS. 2 & 3). The chAB2 antibody was reactive to mouse surface Sp17 protein expressed on the mouse ovarian cancer cell line ID8 (FIG. 4).

Kd: 2.07 nM
koff: 0.00013 s⁻¹
kon: 62600 M⁻¹ s⁻¹
B1: mouse-human chimeric anti-Sp17 IgG2a/kappa monoclonal antibody chAB2 (antibody, V domains shown)
VH: QVQLQQSGAEVKKPGSSVKVSCKASGGTFSSYAISWVRQAPGQGLEWMGRIIPILGIANYAQKFQGRVTITADKSTSTAYMELSSLRSEDTAVYYCARPSEEVVAAYGAFDIWGQGTTVTVSS
VL: EIVLTQSPLSLPVRPGEPASISCRASQSLLRSDGFNYLDWYLQKPGQSPQLLVYLGSNRASGVPDRFSGSGSGTDFTLKISRVEAEDVGVYYCMQAVQTPYIFGQGTKLEIK
notes: also called chimeric antibody; anti-Sp17 antibody chAB2
